Values quoted from earlier work in PMC10817355.

Target: BTLA (Homo sapiens) (UniProt Q7Z6A9)
UniProt Q7Z6A9, sequence (Q7Z6A9 31-157): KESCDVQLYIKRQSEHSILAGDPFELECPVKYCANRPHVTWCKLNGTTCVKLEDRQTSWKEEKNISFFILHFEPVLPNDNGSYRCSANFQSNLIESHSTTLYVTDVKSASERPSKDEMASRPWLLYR

HVEM(14-39) 14-39 (from UniProt Q92956)
Kd: 102 nM
